Measurements: article PMC6656757, “Structural insights into E1 recognition and the ubiquitin-conjugating activity of the E2 enzyme Cdc34” (Nature Communications, 2019)

What was measured:
S. pombe Uba1 (S. pombe) = target: T1, S. pombe Uba1 (S. pombe) (UniProt O94609)
T1 sequence: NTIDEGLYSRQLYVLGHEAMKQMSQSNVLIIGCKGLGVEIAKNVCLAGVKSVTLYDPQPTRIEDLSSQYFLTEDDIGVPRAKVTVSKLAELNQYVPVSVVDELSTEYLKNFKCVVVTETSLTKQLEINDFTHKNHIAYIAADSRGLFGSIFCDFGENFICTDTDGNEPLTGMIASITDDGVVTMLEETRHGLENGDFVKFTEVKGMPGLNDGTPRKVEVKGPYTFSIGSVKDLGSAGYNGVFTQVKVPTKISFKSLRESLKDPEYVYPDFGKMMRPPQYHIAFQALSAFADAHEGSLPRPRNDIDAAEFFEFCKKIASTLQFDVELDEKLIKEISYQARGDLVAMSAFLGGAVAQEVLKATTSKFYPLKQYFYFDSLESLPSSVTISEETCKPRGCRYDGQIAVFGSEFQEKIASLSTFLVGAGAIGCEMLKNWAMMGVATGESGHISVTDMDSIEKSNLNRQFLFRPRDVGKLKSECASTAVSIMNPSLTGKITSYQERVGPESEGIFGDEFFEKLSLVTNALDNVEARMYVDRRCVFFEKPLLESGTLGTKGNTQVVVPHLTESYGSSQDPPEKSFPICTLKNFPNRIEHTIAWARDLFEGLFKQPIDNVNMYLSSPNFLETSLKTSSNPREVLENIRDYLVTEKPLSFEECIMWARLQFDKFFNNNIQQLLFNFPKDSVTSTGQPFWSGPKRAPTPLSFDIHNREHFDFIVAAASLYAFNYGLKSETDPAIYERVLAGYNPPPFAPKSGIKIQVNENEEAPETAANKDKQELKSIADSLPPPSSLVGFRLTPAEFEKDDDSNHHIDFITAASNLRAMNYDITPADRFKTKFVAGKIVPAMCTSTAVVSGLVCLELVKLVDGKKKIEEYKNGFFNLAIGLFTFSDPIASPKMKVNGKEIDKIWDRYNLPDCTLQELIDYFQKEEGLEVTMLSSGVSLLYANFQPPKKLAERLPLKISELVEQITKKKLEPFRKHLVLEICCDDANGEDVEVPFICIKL

[1] = target: T2, S. cerevisiae Uba1 (a.a. 11–1024) (S. cerevisiae, UniProt P22515 11-1024, in the crystal: disulfide bond between the Uba1 and Cdc34 catalytic cysteines (cross-link)); assay: crystal structure; S. cerevisiae Uba1-Cdc34^Δdist held by a disulfide bond between the catalytic cysteines, mixed with Ub, 1 mM ATP and 5 mM MgCl2; crystals at 18 °C in 0.2 M ammonium sulfate, 25% PEG 3,350, 0.1 M Bis-Tris pH 6.5; 2.07 Å; two copies in the asymmetric unit; details: both partners purified
T2 construct: residues 11-773 and 797-1024 built in the model; Cross-linked to Cdc34 only for the crystal; not cross-linked in the thioester transfer assays; also called ScUba1; E1; source: E. coli BL21 (DE3) Codon Plus, purified (Ni-NTA, gel filtration, MonoQ)
T2 sequence (P22515 11-1024): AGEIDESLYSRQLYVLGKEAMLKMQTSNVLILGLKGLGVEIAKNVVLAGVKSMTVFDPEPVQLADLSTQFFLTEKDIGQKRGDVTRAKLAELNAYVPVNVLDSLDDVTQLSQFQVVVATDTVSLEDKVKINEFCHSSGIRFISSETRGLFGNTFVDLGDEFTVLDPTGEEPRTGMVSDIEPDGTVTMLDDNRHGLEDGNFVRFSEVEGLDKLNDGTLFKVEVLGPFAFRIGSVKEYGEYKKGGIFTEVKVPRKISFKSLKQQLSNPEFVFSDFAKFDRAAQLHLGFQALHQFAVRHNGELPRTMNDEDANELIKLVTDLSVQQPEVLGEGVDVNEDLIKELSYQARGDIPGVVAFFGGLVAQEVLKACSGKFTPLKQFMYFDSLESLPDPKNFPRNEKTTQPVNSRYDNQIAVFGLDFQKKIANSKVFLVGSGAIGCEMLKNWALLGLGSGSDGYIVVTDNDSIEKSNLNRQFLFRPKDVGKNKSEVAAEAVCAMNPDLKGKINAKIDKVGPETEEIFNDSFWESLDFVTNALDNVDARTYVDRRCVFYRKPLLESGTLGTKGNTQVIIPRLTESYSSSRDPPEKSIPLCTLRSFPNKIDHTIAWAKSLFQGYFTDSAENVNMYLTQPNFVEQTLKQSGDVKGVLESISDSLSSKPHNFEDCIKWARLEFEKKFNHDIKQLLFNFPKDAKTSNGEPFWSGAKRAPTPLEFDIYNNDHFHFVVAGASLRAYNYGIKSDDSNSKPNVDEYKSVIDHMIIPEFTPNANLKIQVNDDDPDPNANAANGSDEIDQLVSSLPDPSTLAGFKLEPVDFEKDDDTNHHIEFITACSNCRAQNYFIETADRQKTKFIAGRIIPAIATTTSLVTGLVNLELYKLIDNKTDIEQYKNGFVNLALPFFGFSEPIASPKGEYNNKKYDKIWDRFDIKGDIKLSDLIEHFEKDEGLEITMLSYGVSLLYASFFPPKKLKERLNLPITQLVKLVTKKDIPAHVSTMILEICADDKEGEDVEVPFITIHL

Ubc4 K4S (from UniProt P46595 1-147) (enzyme)
E1-E2 thioester transfer assay: Ubc4 K4S (fold loss of activity) (S. pombe Uba1 (S. pombe)): 2

B1: S. cerevisiae Cdc34^Δdist (enzyme, UniProt P14682 1-195, looked up)
chain: MSSRKSTASSLLLRQYRELTDPKKAIPSFHIELEDDSNIFTWNIGVMVLNEDSIYHGGFFKAQMRFPEDFPFSPPQFRFTPAIYHPNVYRDGRLCISILHQSGDPMTDEPDAETWSPVQTVESVLISIVSLLEDPNINSPANVDAAVDYRKNPEQYKQRVKMEVERSKQDIPKGFIMPTSESAYISQSKLDEPES
modifications: in the crystal with Uba1: disulfide bond between the Uba1 and Cdc34 catalytic cysteines (cross-link)
notes: Cdc34, E2 ubiquitin-conjugating enzyme, S. cerevisiae; construct lacking CTD^dist (residues 196-295), made by a stop codon in Cdc34^FL; residues 3-102 and 112-181 built in the complex; Used here also as the wild-type Cdc34 of the thioester transfer assays with Uba1 mutants; also called ScCdc34^Δdist; source: E. coli BL21 (DE3) Codon Plus, purified
binding result [1]: binds

B2: Ubc15 K12A (enzyme)
chain: MPSSASEQLLRAQLKEIQKNPPQGFSVGLVDDKSIFEWEVMIIGPEDTLYEGGFFHATLSFPQDYPLMPPKMKFTTEIWHPNVHPNGEVCISILHPPGDDKYGYEDAGERWLPVHSPETILISVISMLSSPNDESPANIDAAKEFRENPQEFKKRVRRLVRRSIEMI
E1-E2 thioester transfer assay (50 nM E1, 60 s): Ubc15 K12A (fold loss of activity) (S. pombe Uba1 (S. pombe)): 5
